The series concerns the molecule itself. Kind of series: cryo-EM structure; detergent-purified protein (6 mg/mL) incubated with 100 μM CPIII, 2 mM MgCl2, 2 mM ATP and 2 mM sodium orthovanadate for 30 min at 22 °C; single-particle analysis.

B1: core region of human ABCB6 (residues 206-842, without TMD0) (domain or fragment, UniProt Q9NP58 206-842, looked up)
chain: APGLRPQSYTLQVHEEDQDVERSQVRSAAQQSTWRDFGRKLRLLSGYLWPRGSPALQLVVLICLGLMGLERALNVLVPIFYRNIVNLLTEKAPWNSLAWTVTSYVFLKFLQGGGTGSTGFVSNLRTFLWIRVQQFTSRRVELLIFSHLHELSLRWHLGRRTGEVLRIADRGTSSVTGLLSYLVFNVIPTLADIIIGIIYFSMFFNAWFGLIVFLCMSLYLTLTIVVTEWRTKFRRAMNTQENATRARAVDSLLNFETVKYYNAESYEVERYREAIIKYQGLEWKSSASLVLLNQTQNLVIGLGLLAGSLLCAYFVTEQKLQVGDYVLFGTYIIQLYMPLNWFGTYYRMIQTNFIDMENMFDLLKEETEVKDLPGAGPLRFQKGRIEFENVHFSYADGRETLQDVSFTVMPGQTLALVGPSGAGKSTILRLLFRFYDISSGCIRIDGQDISQVTQASLRSHIGVVPQDTVLFNDTIADNIRYGRVTAGNDEVEAAAQAAGIHDAIMAFPEGYRTQVGERGLKLSGGEKQRVAIARTILKAPGIILLDEATSALDTSNERAIQASLAKVCANRTTIVVAHRLSTVVNADQILVIKDGCIVERGRHEALLSRGGVYADMWQLQQGQEETSEDTKPQTMER
notes: Homodimer in the cryo-EM maps; also called hABCB6^core; ABCB6^core; not shown: eGFP, C-terminal, cleaved; 10×His, C-terminal, cleaved
As for B1, the binding result is “binds”.

B2: hABCB6^core-W546A mutant (domain or fragment, human, UniProt Q9NP58 206-842, looked up)
chain: APGLRPQSYTLQVHEEDQDVERSQVRSAAQQSTWRDFGRKLRLLSGYLWPRGSPALQLVVLICLGLMGLERALNVLVPIFYRNIVNLLTEKAPWNSLAWTVTSYVFLKFLQGGGTGSTGFVSNLRTFLWIRVQQFTSRRVELLIFSHLHELSLRWHLGRRTGEVLRIADRGTSSVTGLLSYLVFNVIPTLADIIIGIIYFSMFFNAWFGLIVFLCMSLYLTLTIVVTEWRTKFRRAMNTQENATRARAVDSLLNFETVKYYNAESYEVERYREAIIKYQGLEWKSSASLVLLNQTQNLVIGLGLLAGSLLCAYFVTEQKLQVGDYVLFGTYIIQLYMPLNAFGTYYRMIQTNFIDMENMFDLLKEETEVKDLPGAGPLRFQKGRIEFENVHFSYADGRETLQDVSFTVMPGQTLALVGPSGAGKSTILRLLFRFYDISSGCIRIDGQDISQVTQASLRSHIGVVPQDTVLFNDTIADNIRYGRVTAGNDEVEAAAQAAGIHDAIMAFPEGYRTQVGERGLKLSGGEKQRVAIARTILKAPGIILLDEATSALDTSNERAIQASLAKVCANRTTIVVAHRLSTVVNADQILVIKDGCIVERGRHEALLSRGGVYADMWQLQQGQEETSEDTKPQTMER
notes: Homodimer in the cryo-EM structures; Used in detergent micelles and in nanodiscs (porcine brain polar lipids, hApoA-I (Δ1-43) scaffold); source: also reconstituted into nanodiscs; not shown: eGFP, C-terminal, cleaved; 10×His, C-terminal, cleaved
With B2, the stoichiometry N (usually the number of molecules, sites or subunits per partner or assembly) was 2.

The values above are taken from paper PMC10514269, “W546 stacking disruption traps the human porphyrin transporter ABCB6 in an outward-facing transient state” (Communications Biology, 2023).
